According to patent publication US10836794B2, “Group of peptides for treating female sexual dysfunction” (“IVIX” Ltd., priority 2016, dated 2020):
Non-standard residues stand in square brackets, D forms with d. No end group written: not given here. Hyp = O=C(O)[C@@H]1C[C@@H](O)CN1

Tests used:
female rats = assay: Efficacy in vivo on preclinical model (Lordoz test): proceptive behavior of ovarioectomized, hormonally stimulated females; settings: 100 mcg/rat, progesterone 0.5 mg/rat
Description: Investigation of the Efficacy of the Peptides of the Invention as a Means of Stimulating the Genital and Sexual Functions
In order to confirm the efficacy as a means of stimulating the genital and sexual functions, peptides according to the invention were synthesized, in particular the tripeptide Thr-Lys-Hyp, the pentapeptide Thr-Lys-Hyp-Arg-Hyp (SEQ ID NO: 12), and the hexapeptide Thr-Lys-Hyp-Arg-Hyp-Phe (SEQ ID NO: 13), and tests were performed as to the efficacy in vivo on the relevant preclinical model (Lordoz test). Furthermore, the efficacy of the group of peptides Thr-Lys-Pro, Thr-Lys-Pro-Arg-Pro (SEQ ID NO: 6), and Thr-Lys-Pro-Arg-Pro-Phe (SEQ ID NO: 7) was also investigated.
The efficacy of the aforementioned groups of peptides was investigated in a dose of 100 mcg/rat with respect to the sexual behavior of female rats. The sexual behavior was registered over the course of 0-16 days in ovarioectomized, hormonally stimulated females in the case of direct contact with sexually active males and in the case when no such contact was possible. […] The results testify to an increase in sexual motivation under the action of the peptides Thr-Lys-Hyp, Thr-Lys-Hyp-Arg-Hyp (SEQ ID NO: 12), and Thr-Lys-Hyp-Arg-Hyp-Phe (SEQ ID NO: 13).

[1] = Stability of liquid pharmaceutical forms (peptide 0.2 %, benzalkonium chloride 0.01 %, water) during storage; single and total impurities; assay type: physicochemical
Description: Investigations of the Stability of Pharmaceutical Forms Containing Peptides Having the Property of Stimulating the Genital and Sexual Functions
This experiment investigated the stability of compositions containing peptides according to the invention. The results of the investigations are illustrated by the example of several peptides according to the invention containing hydroxyproline, in particular Thr-Lys-Hyp […], Thr-Lys-Hyp-Arg-Hyp (SEQ ID NO: 13), Thr-Lys-Hyp-Arg-Hyp-Phe and Thr-Lys-Hyp-Arg-Hyp-Gly-Hyp (SEQ ID NO: 14).
The peptides described in RU2507212 were also obtained, in particular Thr-Lys-Pro, Thr-Lys-Pro-Arg-Pro (SEQ ID NO: 6), Thr-Lys-Pro-Arg-Pro-Phe (SEQ ID NO: 7) and Thr-Lys-Pro-Arg-Pro-Gly-Pro (SEQ ID NO: 1).
From the compounds obtained, a liquid pharmaceutical form (a solution) was prepared, including the peptide and the preservative benzalkonium chloride with the following ratio of components: 0.2 and 0.01 mass %, respectively, water the rest. Samples were placed in storage at two temperature regimes, namely, +4° C. and +25° C. Investigation of the stability of the peptides was carried out after 1, 3, 6, 12, and 24 months of storage. In the investigation of the samples for stability, the quantity of single impurities and the total quantity of impurities were evaluated, testifying to the degradation of the peptides. The pharmaceutical requirements of the company for impurities are: any single impurity, not more than 1.5%; total content of impurities, not more than 3.0%. If the content of impurities exceeded the above indicated values, the pharmaceutical form was deemed to have failed the test for stability.

[2] = stored for 1 month at +4° C., solution 0.2 mass % peptide, 0.01 mass % benzalkonium chloride
[3] = stored for 1 month at +25° C., solution 0.2 mass % peptide, 0.01 mass % benzalkonium chloride
[4] = stored for 12 months at +25° C.
[5] = stored for 24 months at +25° C.

| Substance | Number of proceptive behavior acts (female rats; day 0 of giving the drug) | Number of proceptive behavior acts (female rats; day 5 of giving the drug) | Number of proceptive behavior acts (female rats; day 11 of giving the drug) | Number of proceptive behavior acts (female rats; day 16 of giving the drug) | Single impurities [1, 2] | Total impurities [1, 2] | Single impurities [1, 3] | Total impurities [1, 3] | Single impurities ([1]; stored for 3 months at +4° C.) | Total impurities ([1]; stored for 3 months at +4° C.) | Single impurities ([1]; stored for 3 months at +25° C.) | Total impurities ([1]; stored for 3 months at +25° C.) | Single impurities ([1]; stored for 6 months at +4° C.) | Total impurities ([1]; stored for 6 months at +4° C.) | Single impurities ([1]; stored for 6 months at +25° C.) | Total impurities ([1]; stored for 6 months at +25° C.) | Single impurities ([1]; stored for 12 months at +4° C.) | Total impurities ([1]; stored for 12 months at +4° C.) | Single impurities ([1]; stored for 24 months at +4° C.) | Total impurities ([1]; stored for 24 months at +4° C.) | further results |
| --- | --- | --- | --- | --- | --- | --- | --- | --- | --- | --- | --- | --- | --- | --- | --- | --- | --- | --- | --- | --- | --- |
| Thr-Lys-Hyp-Arg-Hyp (TK[Hyp]R[Hyp]) [pentapeptide of the invention containing hydroxyproline] | 13 ± 4 | 38 ± 4 | 36 ± 4 | 36 ± 6 | 0.03% | 0.09% | 0.046% | 0.14% | 0.03% | 0.09% | 0.047% | 0.15% | 0.04% | 0.1% | 0.1% | 0.7% | 0.07% | 0.2% | 0.1% | 0.7% | Single impurities [1, 4]: 0.2%; Total impurities [1, 4]: 0.9%; Single impurities [1, 5]: 0.9%; Total impurities [1, 5]: 1.2% |
| Thr-Lys-Hyp-Arg-Hyp-Gly-Hyp (TK[Hyp]R[Hyp]G[Hyp]) [peptide according to the invention containing hydroxyproline] | – | – | – | – | 0.049% | 0.12% | 0.069% | 0.14% | 0.05% | 0.12% | 0.07% | 0.5% | 0.06% | 0.14% | 0.09% | 0.9% | 0.09% | 0.3% | 0.1% | 1.1% | Single impurities [1, 4]: 0.3%; Total impurities [1, 4]: 1.1%; Single impurities [1, 5]: 1.2%; Total impurities [1, 5]: 2.6% |
| Thr-Lys-Hyp-Arg-Hyp-Phe (TK[Hyp]R[Hyp]F) [hexapeptide of the invention containing hydroxyproline] | 14 ± 4 | 24 ± 4 | 23 ± 4 | 24 ± 4 | 0.067% | 0.15% | 0.032% | 0.09% | 0.068% | 0.15% | 0.033% | 0.09% | 0.08% | 0.2% | 0.09% | 0.6% | 0.1% | 0.3% | 0.9% | 1.9% | Single impurities [1, 4]: 0.4%; Total impurities [1, 4]: 0.8%; Single impurities [1, 5]: 1.3%; Total impurities [1, 5]: 2.7% |
| Thr-Lys-Pro [reference compound] | 14 ± 4 | 15 ± 4 | 20 ± 4 | 28 ± 4 | 0.051% | 0.13% | 0.06% | 0.1% | 0.053% | 0.135% | 0.13% | 0.25% | 0.3% | 0.9% | 1.7% | 3.1% | 0.9% | 1.7% | 1.2% | 2.2% | – |
| Thr-Lys-Pro-Arg-Pro (TKPRP; not fully specified; printed as Thr-Lys-Pro-Arg-Pro) [pentapeptide described in RU2507212, comparison peptide, reference compound] | 12 ± 4 | 15 ± 4 | 24 ± 4 | 36 ± 6 | 0.042% | 0.09% | 0.067% | 0.54% | 0.042% | 0.93% | 0.19% | 0.9% | 0.09% | 1% | 1.4% | 3.0% | 0.8% | 1.5% | 1.1% | 1.9% | Single impurities [1, 4]: 4%; Total impurities [1, 4]: 6% |
| Thr-Lys-Pro-Arg-Pro-Gly-Pro (TKPRPGP; not fully specified; printed as Thr-Lys-Pro-Arg-Pro-Gly-Pro) [heptopeptide “Selank”, a synthetic analogue of the endogenous peptide tuftsin, reference compound] | – | – | – | – | 0.05% | 0.17% | 0.065% | 0.13% | 0.07% | 0.2% | 0.9% | 1.2% | 0.8% | 1.4% | 1.7% | 3.1% | 1% | 1.7% | 2% | 3.7% | – |
| Thr-Lys-Pro-Arg-Pro-Phe (TKPRPF; not fully specified; printed as Thr-Lys-Pro-Arg-Pro-Phe) [hexapeptide described in RU2507212, comparison peptide, reference compound] | 14 ± 4 | 16 ± 4 | 19 ± 4 | 26 ± 4 | 0.054% | 0.17% | 0.11% | 0.19% | 0.09% | 0.18% | 0.9% | 1.1% | 0.5% | 1.1% | 1.9% | 3.5% | 0.9% | 1.3% | 1.6% | 2,9% | – |
| Thr-Lys-[Hyp] | 12 ± 4 | 25 ± 4 | 24 ± 4 | 26 ± 4 | 0.034% | 0.09% | 0.052% | 0.11% | 0.035% | 0.11% | 0.052% | 0.9% | 0.036% | 0.2% | 0.2% | 1% | 0.09% | 0.3% | 0.1% | 0.9% | Single impurities [1, 4]: 0.3%; Total impurities [1, 4]: 1.2%; Single impurities [1, 5]: 0.8%; Total impurities [1, 5]: 1.8% |
